Laboratory results as given in patent CN111363035A (DONGGUAN PENGZHI BIOTECHNOLOGY CO LTD, dated 2020).

Biological target: T1, 重组FABP蛋白(自产，140618) (human, UniProt P05413 1-133, limits assumed)
T1 construct: The coated protein is only called 'recombinant FABP protein'; also called 心型脂肪酸结合蛋白; H-FABP
Test: indirect ELISA, recombinant FABP protein coated, CHO transient supernatant, goat anti-mouse IgG-HRP

T1 sequence (P05413 whole entry): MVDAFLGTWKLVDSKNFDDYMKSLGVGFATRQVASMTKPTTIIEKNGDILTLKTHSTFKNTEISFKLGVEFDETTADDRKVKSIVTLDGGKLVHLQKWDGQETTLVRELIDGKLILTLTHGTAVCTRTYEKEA

B1: Anti-FABP 8F3 重组抗体 (抗人心型脂肪酸结合蛋白的重组抗体) (antibody, V domains shown)
VH: QVQLQQPGADLVRPGASVKLSCKTSGYSFTGYFMNWVKQRPGQGLEWIGMIHASDSSTRLNQKFKDKATLTVDKSSTTVYMQFSSPTSEDSAVYYCARGIRDFAYWGQGTLVTVSA
VL: DIVMTQSQKFMSTSVGDRVSITCKASNNIASSVAWYQLRPGQSPKALIYSPTYRYSGIPDRFTGSGSGTDFTLTISNVQSEDLAEYFCQQYNSYPLSFGSGTKLEIK
  OD450 (reference 630 nm) at 1000-fold dilution of the supernatant: > 1 OD
